# Measurements published in patent publication US20200199241A1 (Chugai, published 2020).
# Residue numbers refer to the chain shown, from its start.
# B1: IgG1-F776 (antibody)
# heavy: QVQLQESGPGLVKPSETLSLTCAVSGHSISHDHAWSWVRQPPGEGLEWIGFISYSGITNYNPSLQGRVTISRDNSKNTLYLQMNSLRAEDTAVYYCARSLARTTAMDYWGEGTLVTVSSASTKGPSVFPLAPSSKSTSGGTAALGCLVKDYFPEPVTVSWNSGALTSGVHTFPAVLQSSGLYSLSSVVTVPSSSLGTQTYICNVNHKPSNTKVDKKVEPKSCDKTHTCPPCPAPELLGGPSVFLFPPKPKDTLYISRTPEVTCVVVDVSHEDPEVKFNWYVDGVEVHNAKTKPREEQYNSTYRVVSVLTVLHQDWLNGKEYKCKVSNKALPAPIEKTISKAAGQPREPQVYTLPPSRDELTKNQVSLTCLVKGFYPSDIAVEWESNGQPENNYKTTPPVLDSDGSFFLYSKLTVDKSRWQQGNVFSCSVMHEALHYHYTQKSLSLSP
# light: not shown
# notes: EU numbering; copies: 2 + 2
# B2: IgG1-F788 (antibody)
# heavy: B1 heavy with N317A, A342K
# light: not shown
# notes: EU numbering; copies: 2 + 2
# B3: IgG1-F782 (antibody)
# heavy: B1 heavy with A342K, Y393A
# light: not shown
# notes: EU numbering; copies: 2 + 2
# B4: IgG1-F783 (antibody)
# heavy: B1 heavy with A342K, D415A
# light: not shown
# notes: EU numbering; copies: 2 + 2
# B5: IgG1-F780 (antibody)
# heavy: B1 heavy with A342K, Q364A
# light: not shown
# notes: EU numbering; copies: 2 + 2
# B6: IgG1-F785 (antibody)
# heavy: B1 heavy with L311H, A342K
# light: not shown
# notes: EU numbering; copies: 2 + 2
# B7: IgG1-F798 (antibody)
# heavy: B1 heavy with N317Q, A342K
# light: not shown
# notes: EU numbering; copies: 2 + 2
# B8: IgG1-F781 (antibody)
# heavy: B1 heavy with A342K, S377A
# light: not shown
# notes: EU numbering; copies: 2 + 2
# B9: IgG1-F799 (antibody)
# heavy: B1 heavy with N317R, A342K
# light: not shown
# notes: EU numbering; copies: 2 + 2
# B10: IgG1-F786 (antibody)
# heavy: B1 heavy with S256T, N288E, T309Q, Q313A, A342K
# light: not shown
# notes: EU numbering; copies: 2 + 2
# B11: IgG1-F795 (antibody)
# heavy: B1 heavy with N317L, A342K
# light: not shown
# notes: EU numbering; copies: 2 + 2
# B12: IgG1-F789 (antibody)
# heavy: B1 heavy with N317D, A342K
# light: not shown
# notes: EU numbering; copies: 2 + 2
# B13: IgG1-F793 (antibody)
# heavy: B1 heavy with N317I, A342K
# light: not shown
# notes: EU numbering; copies: 2 + 2
# B14: IgG1-F787 (antibody)
# heavy: B1 heavy with S256T, T309Q, L311E, Q313A, A342K
# light: not shown
# notes: EU numbering; copies: 2 + 2
# B15: IgG1-F800 (antibody)
# heavy: B1 heavy with N317S, A342K
# light: not shown
# notes: EU numbering; copies: 2 + 2
# B16: IgG1-F792 (antibody)
# heavy: B1 heavy with N317G, A342K
# light: not shown
# notes: EU numbering; copies: 2 + 2
# B17: IgG1-F794 (antibody)
# heavy: B1 heavy with N317K, A342K
# light: not shown
# notes: EU numbering; copies: 2 + 2
# B18: IgG1-F777 (antibody)
# heavy: B1 heavy with A342K, E347A
# light: not shown
# notes: EU numbering
# B19: IgG1-F784 (antibody)
# heavy: B1 heavy with L311A, A342K
# light: not shown
# notes: EU numbering; copies: 2 + 2
# B20: IgG1-F779 (antibody)
# heavy: B1 heavy with A342K, N363A
# light: not shown
# notes: EU numbering; copies: 2 + 2
# B21: IgG1-F796 (antibody)
# heavy: B1 heavy with N317M, A342K
# light: not shown
# notes: EU numbering; copies: 2 + 2
# B22: IgG1-F790 (antibody)
# heavy: B1 heavy with N317E, A342K
# light: not shown
# notes: EU numbering; copies: 2 + 2
# Target: T1, soluble human FcRn complexed with β2-microglobulin (human, UniProt P61769 21-119, limits assumed)
# T1 construct: also called hFcRn
# Assay: Biacore SPR, pH 7.0;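 further: test antibodies captured on a Protein L chip with human FcRn flowed over as analyte, KD obtained as the ratio of dissociation to association rate constants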
row,Kd,Binder
1,390 nM,B1
2,410 nM,B2
3,350 nM,B3
4,400 nM,B4
5,390 nM,B5
6,740 nM,B6
7,350 nM,B7
8,370 nM,B8
9,410 nM,B9
10,28 nM,B10
11,310 nM,B11
12,150 nM,B12
13,330 nM,B13
14,88 nM,B14
15,380 nM,B15
16,440 nM,B16
17,410 nM,B17
18,390 nM,B18
19,500 nM,B19
20,390 nM,B20
21,340 nM,B21
22,270 nM,B22
